Columns and labels:
G-Actin = G-Actin (UniProt P68135)
F-Actin [1] = target: F-Actin (UniProt P68135); test: co-sedimentation; Actin pre-polymerized, sedimentated and then incubated with Simiate or the control protein; 100,000 g for 1 h; supernatant and pellet by SDS-PAGE
F-Actin [2] = target: F-Actin (UniProt P68135); test: co-sedimentation; G-Actin polymerized 2.5 h at 25°C in polymerization buffer (5 mM Tris pH 8.0, 0.2 mM CaCl2, 1 mM ATP, 0.5 mM DTT, 5 mM KCl, 2 mM MgCl2) with equal amounts (0.125 μg/μl) of Simiate or GST; 100,000 g for 1 h; supernatant and pellet by SDS-PAGE

decrease in amount of Actin polymerized after a period of 3 h (sedimentation assay), against Actin alone (G-Actin): 29%
percent of the total Simiate content in the sediment (F-Actin [1]): 50.8%
percent of the total Simiate content in the sediment (F-Actin [2]): 51.4%
Substance: recombinant Simiate (natural protein)

Reference: publication PMC3986562
